Experiments:
MdBIS3 (MdBIS3.1) = target: T1, MdBIS3 (MdBIS3.1) (Malus domestica, UniProt K9MST3); assay: X-ray crystal structure, […] Å; type: binding; settings: crystals soaked with 15 mM benzoyl-CoA; CoA tunnel and active site, partial occupancy; active-site cysteine oxidized to sulfinic acid
T1 construct: cDNA in pHIS8, E. coli BL21(DE3), N-terminal His8 tag cut with thrombin; homodimer

[1] = substrate: CC(C)(COP(=O)(O)OP(=O)(O)OC[C@H]1O[C@@H](n2cnc3c(N)ncnc32)[C@H](O)[C@@H]1OP(=O)(O)O)[C@@H](O)C(=O)NCCC(=O)NCCSC(=O)c1ccccc1; assay: steady-state kinetics, LC-MS product quantification; type: biochemical, Malus domestica; settings: malonyl-CoA held constant (standard 60 µM), 0.1 M potassium phosphate pH 7.0, 37°C
Text: (§1) steady-state kinetics, LC-MS product quantification on MdBIS1 (MdBIS1.1)

[2] = substrate: CC(C)(COP(=O)(O)OP(=O)(O)OC[C@H]1O[C@@H](n2cnc3c(N)ncnc32)[C@H](O)[C@@H]1OP(=O)(O)O)[C@@H](O)C(=O)NCCC(=O)NCCSC(=O)CC(=O)O; assay: as above; type: biochemical, Malus domestica; settings: starter substrate held constant (standard 15 µM; which starter not told), 0.1 M potassium phosphate pH 7.0, 37°C
Text: as §1

[3] = substrate: CC(C)(COP(=O)(O)OP(=O)(O)OC[C@H]1O[C@@H](n2cnc3c(N)ncnc32)[C@H](O)[C@@H]1OP(=O)(O)O)[C@@H](O)C(=O)NCCC(=O)NCCSC(=O)c1ccccc1O; assay: as above; type: biochemical, Malus domestica; settings: malonyl-CoA held constant (standard 60 µM), 0.1 M potassium phosphate pH 7.0, 37°C
Text: as §1

[4] = substrate: CC(C)(COP(=O)(O)OP(=O)(O)OC[C@H]1O[C@@H](n2cnc3c(N)ncnc32)[C@H](O)[C@@H]1OP(=O)(O)O)[C@@H](O)C(=O)NCCC(=O)NCCSC(=O)c1ccccc1; assay: as above; type: biochemical, Hypericum androsaemum; settings: malonyl-CoA held constant (standard 80 µM), 0.1 M potassium phosphate pH 7.0, 37°C
Text: (§2) steady-state kinetics, LC-MS product quantification on HaBPS

[5] = substrate: CC(C)(COP(=O)(O)OP(=O)(O)OC[C@H]1O[C@@H](n2cnc3c(N)ncnc32)[C@H](O)[C@@H]1OP(=O)(O)O)[C@@H](O)C(=O)NCCC(=O)NCCSC(=O)CC(=O)O; assay: as above; type: biochemical, Hypericum androsaemum; settings: starter substrate held constant (standard 20 µM), 0.1 M potassium phosphate pH 7.0, 37°C
Text: as §2

[6] = substrate: CC(C)(COP(=O)(O)OP(=O)(O)OC[C@H]1O[C@@H](n2cnc3c(N)ncnc32)[C@H](O)[C@@H]1OP(=O)(O)O)[C@@H](O)C(=O)NCCC(=O)NCCSC(=O)/C=C/c1ccc(O)cc1; assay: as above; type: biochemical, Malus domestica; settings: malonyl-CoA held constant (standard 100 µM), 0.1 M potassium phosphate pH 7.0, 37°C
Text: (§3) steady-state kinetics, LC-MS product quantification on MdCHS2

[7] = substrate: CC(C)(COP(=O)(O)OP(=O)(O)OC[C@H]1O[C@@H](n2cnc3c(N)ncnc32)[C@H](O)[C@@H]1OP(=O)(O)O)[C@@H](O)C(=O)NCCC(=O)NCCSC(=O)CC(=O)O; assay: as above; type: biochemical, Malus domestica; settings: coumaroyl-CoA held constant (standard 60 µM), 0.1 M potassium phosphate pH 7.0, 37°C
Text: as §3

[8] = substrate: CC(C)(COP(=O)(O)OP(=O)(O)OC[C@H]1O[C@@H](n2cnc3c(N)ncnc32)[C@H](O)[C@@H]1OP(=O)(O)O)[C@@H](O)C(=O)NCCC(=O)NCCSC(=O)c1ccccc1; assay: as above; type: biochemical, Malus domestica; settings: malonyl-CoA held constant (standard 60 µM), 0.1 M potassium phosphate pH 7.0, 37°C; remark: listed apart in the source
Text: (§4) steady-state kinetics, LC-MS product quantification on MdBIS3 (MdBIS3.1)

[9] = substrate: CC(C)(COP(=O)(O)OP(=O)(O)OC[C@H]1O[C@@H](n2cnc3c(N)ncnc32)[C@H](O)[C@@H]1OP(=O)(O)O)[C@@H](O)C(=O)NCCC(=O)NCCSC(=O)CC(=O)O; assay: as above; type: biochemical, Malus domestica; settings: starter substrate held constant (standard 15 µM; which starter not told), 0.1 M potassium phosphate pH 7.0, 37°C; remark: listed apart in the source
Text: as §4

[10] = substrate: CC(C)(COP(=O)(O)OP(=O)(O)OC[C@H]1O[C@@H](n2cnc3c(N)ncnc32)[C@H](O)[C@@H]1OP(=O)(O)O)[C@@H](O)C(=O)NCCC(=O)NCCSC(=O)c1ccccc1O; assay: as above; type: biochemical, Malus domestica; settings: malonyl-CoA held constant (standard 60 µM), 0.1 M potassium phosphate pH 7.0, 37°C; remark: listed apart in the source
Text: as §4

CC(C)(COP(=O)(O)OP(=O)(O)OC[C@H]1O[C@@H](n2cnc3c(N)ncnc32)[C@H](O)[C@@H]1OP(=O)(O)O)[C@@H](O)C(=O)NCCC(=O)NCCSC(=O)c1ccccc1 [Benzoyl-CoA]
X-ray crystal structure, 1.20 Å (MdBIS3 (MdBIS3.1)): co-crystallization of MdBIS3 with benzoyl-CoA, resulting in intact benzoyl-CoA molecules with partial occupancies

B1: MdBIS1 (MdBIS1.1) (Malus domestica) (protein)
chain: MAPLVKNHGEHQHAKILAIGTANPPNVYYQKDYPDFLFRVTKNEHRTDLREKFDRICEKSRTRKRYLHLTEEILKANPSIYTYGAPSLDVRQDMLNPEVPKLGQQAALKAIKEWGQPISKITHLIFCTASCVDMPGADFQLVKLLGLNPSVTRTMIYEAGCYAGATVLRLAKDFAENNEGARVLVVCAEITTVFFHGLTDTHLDILVGQALFADGASAVIVGANPEPKIERPLFEIVACRQTIIPNSEHGVVANIREMGFTYYLSGEVPKFVGGNVVDFLTKTFEKVDGKNKDWNSLFFSVHPGGPAIVDQVEEQLGLKEGKLRATRHVLSEYGNMGAPSVHFILDDMRKKSIEEGKSTTGEGLEWGVVIGIGPGLTVETAVLRSESITC
notes: cDNA in pHIS8, E. coli BL21(DE3), N-terminal His8 tag cut with thrombin
Km [1]: 0.8 ± 0.2 µM | kcat [1]: 0.2833 ± 0.00167 s⁻¹ | kcat/Km [1]: 350000 M⁻¹ s⁻¹ | Km [2]: 6.8 ± 1.7 µM | Km [3]: 1.6 ± 0.4 µM | kcat [3]: 0.2083 ± 0.00167 s⁻¹ | kcat/Km [3]: 130000 M⁻¹ s⁻¹

B2: HaBPS (Hypericum androsaemum) (protein)
chain: MAPAMEYSTQNGQGEGKKRASVLAIGTTNPEHFILQEDYPDFYFRNTNSEHMTELKEKFKRICVKSHIRKRHFYLTEEILKENQGIATYGAGSLDARQRILETEVPKLGQEAALKAIAEWGQPISKITHVVFATTSGFMMPGADYVITRLLGLNRTVRRVMLYNQGCFAGGTALRVAKDLAENNEGARVLVVCAENTAMTFHAPNESHLDVIVGQAMFSDGAAALIIGACPDVASGERAVFNILSASQTIVPGSDGAITAHFYEMGMSYFLKEDVIPLFRDNIAAVMEEAFSPLGVSDWNSLFYSIHPGGRGIIDGVAGNLGIKDENLVATRHVLGEYGNMGSACVMFILDELRKSSKVNGKPTTGDGKEFGCLIGLGPGLTVEAVVLQSVPILQ
notes: codon-optimized synthetic gene in pHIS8, E. coli BL21(DE3), N-terminal His8 tag cut with thrombin; homodimer
Km [4]: 1.3 ± 0.5 µM | kcat [4]: 0.0183 s⁻¹ | kcat/Km [4]: 14000 M⁻¹ s⁻¹ | Km [5]: 2.8 ± 0.7 µM

B3: MdCHS2 (Malus domestica) (protein)
chain: MVTVEEVRKAQRAEGPATVLAIGTATPSNCVDQATYPDYYFRITNSEHKTELKEKFQRMCDKSMIKKRYMYLTEEILKENPTVCEYMAPSLDARQDMVVVEVPRLGKEAATKAIKEWGQPKSKITHLVFCTTSGVDMPGADYQLTKLLGLRPYVKRLMMYQQGCFAGGTVLRLAKDLAENNKGARVLVVCSEITAVTFRGPSDTHLDSLVGQALFGDGAAAVIIGADPLPEVEKPLFELVSAAQTILPDSDGAIDGHLREVGLTFHLLKDVPGLISKNIEKSLNEAFKPIGISDWNSLFWIAHPGGPAILDQVESKLALKPEKLEATRQVLSNYGNMSSACVLFILDEVRRKSTEKGLRTTGEGLEWGVLFGFGPGLTVETVVLHSVAA
notes: cDNA in pHIS8, E. coli BL21(DE3), N-terminal His8 tag cut with thrombin; homodimer
Km [6]: 17.9 ± 6.1 µM | kcat [6]: 0.02 ± 0.00167 s⁻¹ | kcat/Km [6]: 1120 M⁻¹ s⁻¹ | Km [7]: 12.8 ± 2.7 µM

B4: MdBIS3 (MdBIS3.1) (Malus domestica) (protein)
chain: MAPLVKNEPQHAKILAIGTANPPNVYHQKDYPDFLFRVTKNEHRTDLREKFDRICEKSRTKKRYLHLTEEMLKANPNIYTYGAPSLDVRQDICNIEVPKLGQEAALKAIKEWGQPISRITHLIFCTASCVDMPGCDFQLIKLLGLDPSVTRTMIYEAGCYAGATVLRMAKDFAENNKGARVLVVCAEITTVFFHGLTDTHLDILVGQALFADGASAVIVGANPEPEIERPLFEIVACRQTILPNSEHGVVANIREMGFNYYLSGDVPKFVGGNVVDFMTKTFEKVDGKKKDWNSLFFSVHPGGPAIVDQVEEKLGLKEGKLRATRHVLSEYGNMGAPTVHFILDEMRNKSIEEGKTTTGEGLEWGVVIGIGPGLTVETAVLRSESIRC
notes: as for B3
Km [8]: 0.5 ± 0.1 µM | kcat [8]: 0.135 s⁻¹ | kcat/Km [8]: 270000 M⁻¹ s⁻¹ | Km [9]: 4.1 ± 1.9 µM | Km [10]: 1.1 ± 0.4 µM | kcat [10]: 0.1 ± 0.00167 s⁻¹ | kcat/Km [10]: 90000 M⁻¹ s⁻¹

Reference: PMC5713876, “Molecular architectures of benzoic acid-specific type III polyketide synthases” (Acta Crystallographica. Section D, Structural Biology, 2017)
